Test results as given in patent US20180193454A1 (IMMUNEXT, published 2018).
Substitutions are numbered along the chain they refer to.

B1: IDEC-131, humanized anti-human CD154 IgG1 antibody (antibody, V domains shown)
VH: EVQLQESGPGLVKPSETLSLTCTVSGDSITNGFWIWIRKPPGNKLEYMGYISYSGSTYYNPSLKSRISISRDTSKNQFSLKLSSVTAADTGVYYCACRSYGRTPYYFDFWGQGTTLTVSS
VL: DIVMTQSPSFLSASVGDRVTITCKASQNVITAVAWYQQKPGKSPKLLIYSASNRYTGVPDRFSGSGSGTDFTLTISSLQPEDFADYFCQQYNSYPYTFGGGTKLEIK
notes: Humanized human IgG1 derived from mouse antibody 24-31
B2: variant 30, humanized anti-human CD154 antibody derived from IDEC-131 (antibody, V domains shown)
VH: B1 VH with C97Y, F109Y
VL: B1 VL with S26G, Q27H, N28S, V29L, I30G, N92D, S93D
B3: variant 23, humanized anti-human CD154 antibody derived from IDEC-131 (antibody, V domains shown)
VH: B1 VH with C97Y, F109Y
VL: B1 VL with A25G, Q27S, N28P, V29L, I30G, T31H, N92D, S93D
notes: also called combination #23
B4: variant 24, humanized anti-human CD154 antibody derived from IDEC-131 (antibody, V domains shown)
VH: B1 VH with C97Y, F109Y
VL: B1 VL with S26P, V29L, I30G, N92D, S93D
B5: variant 22, humanized anti-human CD154 antibody derived from IDEC-131 (antibody, V domains shown)
VH: B1 VH with C97Y, F109Y
VL: B1 VL with Q27S, V29L, I30G, T31N, N92D, S93D
B6: variant 31, humanized anti-human CD154 antibody derived from IDEC-131 (antibody, V domains shown)
VH: B1 VH with C97Y, F109Y
VL: B1 VL with S26N, N28P, V29L, I30G, T31H, N92D, S93D
B7: INX021 (variant 21), humanized anti-human CD154 IgG1 antibody derived from IDEC-131 (antibody, V domains shown)
VH: B1 VH with C97Y, F109Y
VL: B1 VL with Q27S, V29L, I30G, T31H, N92D, S93D
B8: variant 27, humanized anti-human CD154 antibody derived from IDEC-131 (antibody, V domains shown)
VH: B1 VH with C97Y, F109Y
VL: B1 VL with N28H, V29L, I30G, T31H, N92D, S93D
B9: variant 26, humanized anti-human CD154 antibody derived from IDEC-131 (antibody, V domains shown)
VH: B1 VH with C97Y, F109Y
VL: B1 VL with N28H, V29L, I30G, N92D, S93D
B10: variant 25, humanized anti-human CD154 antibody derived from IDEC-131 (antibody, V domains shown)
VH: B1 VH with C97Y, F109Y
VL: B1 VL with V29L, I30N, T31H, N92D, S93D
B11: variant 29, humanized anti-human CD154 antibody derived from IDEC-131 (antibody, V domains shown)
VH: B1 VH with C97Y, F109Y
VL: B1 VL with A25G, S26N, N28P, V29L, I30G, T31H, N92D, S93D
B12: variant 28, humanized anti-human CD154 antibody derived from IDEC-131 (antibody, V domains shown)
VH: B1 VH with C97Y, F109Y
VL: B1 VL with S26P, Q27S, N28S, V29L, I30G, T31H, N92D, S93D

Legend:
human CD154 [1] = target: T1, human CD154 (human, UniProt P29965 113-261, limits assumed); test: SPR, Biacore 3000, 25 C; antibody immobilized, CD154 antigen flowed over; average n = 6
T1 construct: also called CD154 antigen; CD40L
T1 sequence (looked up): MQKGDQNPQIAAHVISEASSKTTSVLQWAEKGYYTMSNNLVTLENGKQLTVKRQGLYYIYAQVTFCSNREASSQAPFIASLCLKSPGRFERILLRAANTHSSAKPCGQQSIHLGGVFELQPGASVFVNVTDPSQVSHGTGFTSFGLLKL
Experimental: (§1) Binding experiments were performed on Biacore […] at 25° C. […] Binding of antigen to the tested antibodies was monitored in real time. From the observed kₒₙ, the koff and KD was determined for each variant.
(§2) Scoring analysis was performed using specific analyte concentrations. At the tested concentration, binding should be observed even if the ligand binding affinity is relatively weak. Full kinetics may be performed by known methods. For the molecular interactions with fast off rate, steady state kinetics may be used to determine the KD value.

[2] = target: T2, CD154 expressed on cells (CD154 expressing Jurkat cells; T cell CD154) (UniProt P29965 1-261, limits assumed); test: binding to CD40L (CD154) expressing Jurkat cells, readout % normalized mean MFI (panel title 'CD40L Jurkat Binding'; legend paragraph 14 calls it a BIAcore assay)
T2 construct: whole, on cells; also called CD154 (expressed on Jurkat cells)
T2 sequence (looked up): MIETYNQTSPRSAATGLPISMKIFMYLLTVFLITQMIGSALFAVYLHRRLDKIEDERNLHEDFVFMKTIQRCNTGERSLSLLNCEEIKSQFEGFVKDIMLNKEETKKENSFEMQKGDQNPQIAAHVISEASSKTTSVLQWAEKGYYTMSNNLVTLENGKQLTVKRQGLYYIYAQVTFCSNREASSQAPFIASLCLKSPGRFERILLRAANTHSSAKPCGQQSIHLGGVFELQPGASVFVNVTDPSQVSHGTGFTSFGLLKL

[3] = target: T2, CD154 expressed on cells (CD154 …); test: binding to CD154 expressing Jurkat cells (legend calls it BIAcore binding assays), FIG. 3
human CD154 [4] = target: T1, human CD154; test: SPR, Biacore 3000, 25 C; antibody immobilized, CD154 antigen flowed over; average n = 6; exponent sign is a misprint in the cell ('+04'); value taken as E-04, as fixed by the same row's KD x Ka (3.62E-11 x 4.11E+06 = 1.49E-04)
Experimental: as §1, §2

Binder | Fold improvement in KD (compared to IDEC131) (human CD154 [1]) | Kd (human CD154 [1]) | koff (human CD154 [1]) | kon (human CD154 [1]) | EC50 (read off the curve) [2] | fold increase in binding affinity compared to IDEC-131 [3] | koff (human CD154 [4])
B1 | 1 fold | 0.151 nM | 0.000525 s⁻¹ | 3.47e+06 M⁻¹ s⁻¹ | ~4 nM |  | 
B2 | 4.4 fold | 0.0329 nM | 0.00014 s⁻¹ | 4.24e+06 M⁻¹ s⁻¹ |  |  | 
B3 | 4.2 fold | 0.0421 nM | 0.000141 s⁻¹ | 3.35e+06 M⁻¹ s⁻¹ |  |  | 
B4 | 4.9 fold | 0.0364 nM | 0.000135 s⁻¹ | 3.7e+06 M⁻¹ s⁻¹ |  |  | 
B5 | 5.2 fold | 0.0262 nM | 0.000117 s⁻¹ | 4.48e+06 M⁻¹ s⁻¹ |  |  | 
B6 | 4.8 fold | 0.0341 nM | 0.000123 s⁻¹ | 3.61e+06 M⁻¹ s⁻¹ |  |  | 
B7 | 4.7 fold | 0.0289 nM | 0.000128 s⁻¹ | 4.42e+06 M⁻¹ s⁻¹ |  | ~5 fold | 
B8 | 4.5 fold | 0.0336 nM | 0.00012 s⁻¹ | 3.58e+06 M⁻¹ s⁻¹ |  |  | 
B9 | 2.5 fold | 0.0576 nM |  | 2.03e+06 M⁻¹ s⁻¹ |  |  | 
B10 | 3.9 fold | 0.0362 nM |  | 4.11e+06 M⁻¹ s⁻¹ |  |  | 0.000149 s⁻¹
B11 | 4.2 fold | 0.0344 nM | 0.000133 s⁻¹ | 3.86e+06 M⁻¹ s⁻¹ |  |  | 
B12 | 4.8 fold | 0.0315 nM | 0.000115 s⁻¹ | 3.65e+06 M⁻¹ s⁻¹ |  |  | 
